In this experiment the target is CV3–25 IgG. The experiment is described as follows: SPR. (In general: Surface plasmon resonance follows binding to a sensor surface in real time, without labels.)

The text below walks through data of paper doi:10.1101/2021.08.02.454546 (2021).

Chain of CV3–25 IgG (VH, as listed by the source, chain 1 of 2): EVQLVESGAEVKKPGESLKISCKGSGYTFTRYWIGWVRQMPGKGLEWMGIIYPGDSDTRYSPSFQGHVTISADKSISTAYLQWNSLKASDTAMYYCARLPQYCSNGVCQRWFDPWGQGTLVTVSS
Chain of CV3–25 IgG (VL, as listed by the source, chain 2 of 2): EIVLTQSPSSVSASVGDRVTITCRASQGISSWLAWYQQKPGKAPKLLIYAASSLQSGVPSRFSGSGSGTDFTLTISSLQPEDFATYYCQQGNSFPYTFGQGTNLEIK

B1: shorter version of peptide #289 (1153-DKYFKNHTSPD-1163) (peptide)
peptide: DKYFKNHTSPD
A word on the koff: it is the first-order rate constant of dissociation. Read a low koff as slow dissociation. B1 yielded a koff of 0.0761 s⁻¹.

B2: SARS-CoV-2 S2 peptide #289 (1153-DKYFKNHTSPDVDLG-1167) (peptide)
peptide: DKYFKNHTSPDVDLG
In the case of B2, the koff was determined as 0.0319 s⁻¹.
